Measurements: US20250154500A1 (SEOUL NATIONAL UNIVERSITY R AND DB FOUNDATION, published 2025)

Target: T1, FLAG-tagged ZCCHC2 ΔN (201-1,178 a.a) (human, UniProt Q9C0B9 201-1178)
T1 construct: Transiently expressed in HeLa ZCCHC2 knockout cells; also called pCK-Flag-ZCCHC2 (201-1178); not shown: FLAG tag and any linker to it; The plasmid name pCK-Flag-ZCCHC2 puts the tag at the N-terminus
Assay: anti-FLAG co-immunoprecipitation from HeLa ZCCHC2 KO cells, western blot
Description: Data are normalized against the value of the wild-type sample and represented as mean±SEM (n=3). * indicates p<0.05, with a two-sided Student's t-test performed. […] Full-length ZCCHC2 protein and its truncated mutants (ΔC, ΔN) were compared for their ability to interact with TENT4 proteins. TENT4A and GAPDH were detected on the same gel, whereas the other proteins were analyzed on separate gels with the same amounts of samples. Cross-reacting bands are indicated by asterisks.
For co-IP experiment, parental cells and TENT4 dKO cells on a 150 μl plate were lysed on ice for 20 minutes using Buffer A (100 mM KCl, 0.1 mM EDTA, 20 mM HEPES [pH 7.5], 0.4% NP-40, 10% glycerol) containing 1 mM DL-Dithiothreitol (DTT), 1× protease inhibitor, and RNase A (Thermo, EN0531), and then centrifuged. For immunoprecipitation, 12.5 μg of antibody (NMG, anti-TENT4A, and anti-TENT4B) conjugated to protein A and G sepharose beads (1:1 mixture, total 20 μl) was used with 1 mg of the lysates. After incubation at 4° C. for 2 hours, the beads were washed, boiled in 20 μl of 2×SDS buffer, and loaded onto a 4-12% (Novex) SDS-PAGE gel with the ladder (Thermo, 26616 and 26619). For domain co-IP experiment, full-length ZCCHC2, truncated construct of ZCCHC2, and negative construct having FLAG tag were transfected in ZCCHC2KO cells, and the cells were lysed within 2 days. […]

T1 sequence (Q9C0B9 201-1178 limits assumed, stated change not applied): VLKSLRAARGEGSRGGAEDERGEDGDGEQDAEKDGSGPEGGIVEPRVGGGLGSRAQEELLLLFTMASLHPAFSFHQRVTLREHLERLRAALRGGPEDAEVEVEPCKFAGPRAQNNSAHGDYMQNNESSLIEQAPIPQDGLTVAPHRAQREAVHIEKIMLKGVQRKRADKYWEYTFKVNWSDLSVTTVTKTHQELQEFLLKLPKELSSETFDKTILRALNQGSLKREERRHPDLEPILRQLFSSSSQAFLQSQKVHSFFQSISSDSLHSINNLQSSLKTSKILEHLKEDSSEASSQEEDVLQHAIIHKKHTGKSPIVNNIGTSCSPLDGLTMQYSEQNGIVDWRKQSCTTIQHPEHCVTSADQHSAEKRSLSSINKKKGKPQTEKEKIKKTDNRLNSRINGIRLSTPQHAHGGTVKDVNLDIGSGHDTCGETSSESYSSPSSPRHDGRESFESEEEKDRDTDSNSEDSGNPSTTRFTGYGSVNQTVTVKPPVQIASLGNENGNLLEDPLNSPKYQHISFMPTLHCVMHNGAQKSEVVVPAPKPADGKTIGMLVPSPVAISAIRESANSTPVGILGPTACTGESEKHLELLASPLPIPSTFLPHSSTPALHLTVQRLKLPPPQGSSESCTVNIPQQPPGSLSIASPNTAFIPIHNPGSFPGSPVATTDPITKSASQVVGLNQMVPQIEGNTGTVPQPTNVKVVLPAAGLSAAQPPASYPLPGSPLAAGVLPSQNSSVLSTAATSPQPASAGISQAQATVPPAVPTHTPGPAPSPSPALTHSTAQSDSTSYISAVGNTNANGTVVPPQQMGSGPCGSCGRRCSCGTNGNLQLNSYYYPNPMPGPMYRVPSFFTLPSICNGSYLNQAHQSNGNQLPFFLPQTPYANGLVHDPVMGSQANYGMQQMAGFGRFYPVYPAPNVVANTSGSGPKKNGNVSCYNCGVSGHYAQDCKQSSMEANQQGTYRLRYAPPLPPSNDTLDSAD

B1: TENT4B (enzyme, human, UniProt Q8NDF8 1-572, looked up)
chain: MYRSGERLLGSHALPAEQRDFLPLETTNNNNNHHQPGAWARRAGSSASSPPSASSSPHPSAAVPAADPADSASGSSNKRKRDNKASGGRAAGGGRADGGGVVYSGTPWKRRNYNQGVVGLHEEISDFYEYMSPRPEEEKMRMEVVNRIESVIKELWPSADVQIFGSFKTGLYLPTSDIDLVVFGKWENLPLWTLEEALRKHKVADEDSVKVLDKATVPIIKLTDSFTEVKVDISFNVQNGVRAADLIKDFTKKYPVLPYLVLVLKQFLLQRDLNEVFTGGIGSYSLFLMAVSFLQLHPREDACIPNTNYGVLLIEFFELYGRHFNYLKTGIRIKDGGSYVAKDEVQKNMLDGYRPSMLYIEDPLQPGNDVGRSSYGAMQVKQAFDYAYVVLSHAVSPIAKYYPNNETESILGRIIRVTDEVATYRDWISKQWGLKNRPEPSCNGPVSSSSATQSSSSDVDSDATPCKTPKQLLCRPSTGNRVGSQDVSLESSQAVGKMQSTQTTNTSNSTNKSQHGSARLFRSSSKGFQGTTQTSHGSLMTNKQHQGKSNNQYYHGKKRKHKRDAPLSDLCR
notes: Endogenous protein of HeLa (human) cells; also called PAPD5; TRF4-2
B1: no binding.

B2: TENT4A (enzyme, human, UniProt Q5XG87 1-792, looked up)
chain: MDPRVAWIQPEQKGPANALWMQIWETSQGVGRGGSGFASYFCLNSPALDTAAAAGAAGRGSGGLGPALPAASPPPPGPTAPAALPPALLTALGPAAEGARRLHKSPSLSSSSSSSSSNAESGTESPGCSSSSSSSASLGRPGGGRGGAFFNFADGAPSAPGTANGHPGPRGPAPAGSPSQHQFHPGRRKRENKASTYGLNYLLSGSRAAALSGGGGPGAQAPRPGTPWKSRAYSPGIQGLHEEIIDFYNFMSPCPEEAAMRREVVKRIETVVKDLWPTADVQIFGSFSTGLYLPTSDIDLVVFGKWERPPLQLLEQALRKHNVAEPCSIKVLDKATVPIIKLTDQETEVKVDISFNMETGVRAAEFIKNYMKKYSLLPYLILVLKQFLLQRDLNEVFTGGISSYSLILMAISFLQLHPRIDARRADENLGMLLVEFFELYGRNFNYLKTGIRIKEGGAYIAKEEIMKAMTSGYRPSMLCIEDPLLPGNDVGRSSYGAMQVKQVFDYAYIVLSHAVSPLARSYPNRDAESTLGRIIKVTQEVIDYRRWIKEKWGSKAHPSPGMDSRIKIKERIATCNGEQTQNREPESPYGQRLTLSLSSPQLLSSGSSASSVSSLSGSDVDSDTPPCTTPSVYQFSLQAPAPLMAGLPTALPMPSGKPQPTTSRTLIMTTNNQTRFTIPPPTLGVAPVPCRQAGVEGTASLKAVHHMSSPAIPSASPNPLSSPHLYHKQHNGMKLSMKGSHGHTQGGGYSSVGSGGVRPPVGNRGHHQYNRTGWRRKKHTHTRDSLPVSLSR
notes: Endogenous protein of HeLa (human) cells; also called PAPD7; TRF4-1
B2: no binding.
